The subject of the data set is K4 kissing-loop RNA reporter. Put plainly: apparent KD of K4 kissing-loop reporter; higher = weaker reporter binding. To be noted: Eterna round: R107. The procedure:
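RNA-MaP round R107: designed RNA switches with theophylline, tryptophan, arginine or FMN aptamers are transcribed on-chip within common flanks. They are titrated with a labelled K4 kissing-loop RNA reporter in RNA-MaP buffer (100 mM Tris pH 7.5, 80 mM KCl, 4 mM MgCl2), without ligand or with the indicated ligand. Median apparent KD per design.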

The mark [1] stands for this setting: input ligand: theophylline 20 uM.
Setting [2] is: input ligand: tryptophan 2.4 mM.
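Note: bound reporter read as fluorescence of individual clusters on recovered sequencing chips by microscopy, with normalized cluster intensities fitted with a binding model.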

For “CAUAUAUAUAGAGGAUAUCGAGUAGAGUGAUGUUCUGCCUGGGUUGGCUCGCAAGGGCCUUCCCAGCGAGAAGGCUAUAUAUAUG [harrys-mod#1ED5.33]”, the “apparent KD of K4 kissing-loop reporter” value worked out at 225 nM (input ligand: FMN 200 uM); 399 nM (input ligand: arginine 13.2 mM); 502 nM (input ligand: none); 431 nM under setting [1]; 482 nM under setting [2].

Take “CAUCACGCAAUCACGGAUGCAAGCAUUGAUACCAGAACCGAUUAUUUCCCUUGGCAGCAACACGGAGUGAUGUUCCUAGCAUAUA [theeternabot_sameState_KL_Theo_A_21]”: the “apparent KD of K4 kissing-loop reporter” value (input ligand: FMN 200 uM) turned out to be 71.2 nM; the “apparent KD of K4 kissing-loop reporter” value (input ligand: arginine 13.2 mM) came out at 122 nM; the “apparent KD of K4 kissing-loop reporter” value (input ligand: none) was found to be 94 nM; the “apparent KD of K4 kissing-loop reporter” value under setting [1] was 209 nM; the “apparent KD of K4 kissing-loop reporter” value under setting [2] stood at 75.5 nM.

In the case of “CCAAUCAGUUACGAUACCAGUCUAAUAUAUUUGAUCAAAACCCUCGCCGAGUGAUGUUCGGACCCUUGGCAGCGUCUGGGACAGG [fcctmullin]”, the “apparent KD of K4 kissing-loop reporter” value reads like this: (input ligand: FMN 200 uM) 502 nM; (input ligand: arginine 13.2 mM) 417 nM; (input ligand: none) 446 nM; under setting [1], 474 nM; under setting [2], 394 nM.

As for “CCAUCGCUAUUCGAUACCAGCCAAGAGGUCUUUGGCCUCUUAAUGGAGUGAUGUUCCAUUGGCCCUUGGCAGCGAAUAGUGAUGG [Theophylline B K4 18]”, the “apparent KD of K4 kissing-loop reporter” value reads like this: (input ligand: FMN 200 uM) 771 nM; (input ligand: arginine 13.2 mM) 489 nM; (input ligand: none) 723 nM; under setting [1], 823 nM; under setting [2], 798 nM.

As for “CCAUCGCUAUUCGAUACCAGCUACUUAGUGAUGUUAAGUUAAAAUAAAUUGUAGAUUAAAAGCCCUUGGCAGCGAAUAGUGAUGG [Theophylline B K4 19]”, the “apparent KD of K4 kissing-loop reporter” value came out at 149 nM (input ligand: FMN 200 uM); 134 nM (input ligand: arginine 13.2 mM); 150 nM (input ligand: none); 103 nM under setting [1]; 136 nM under setting [2].

In the case of “CCAUCGCUAUUCGAUACCAGCUCCUUAGUGAUGUUAAGGUUUUACGCUCUGUAGGAGCGAAGCCCUUGGCAGCGAGUAGUGAUGG [#04 K4 Theophylline B Same State]”, the “apparent KD of K4 kissing-loop reporter” value was 1120 nM (input ligand: FMN 200 uM); 832 nM (input ligand: arginine 13.2 mM); 1060 nM (input ligand: none); 716 nM under setting [1]; 1110 nM under setting [2].

“CCGGGCGGCCGAAGGAGCGGGCGGGCCCGAGUGAUGUUCGGGUGGACCGUGAGGUCCGGUGCCCAGGUAGGUCGCGGUUCCGCCC [#2 Same State - Arginine B Attempt #7 (HarryS)]”: the “apparent KD of K4 kissing-loop reporter” value reads like this: (input ligand: FMN 200 uM) 156 nM; (input ligand: arginine 13.2 mM) 123 nM; (input ligand: none) 157 nM; under setting [1], 115 nM; under setting [2], 134 nM.

Consider “CCUAUCUCAUACGAUACCAGUCAAUGAUAUUUUAUCAAUGCCAUCACCGAGUGAUGUUCGGACCCUUGGCAGCGUAUGGGAUAGG [whbob_Ex_Theo_B_sa101]”, for which the “apparent KD of K4 kissing-loop reporter” value by setting is: (input ligand: FMN 200 uM) 266 nM; (input ligand: arginine 13.2 mM) 212 nM; (input ligand: none) 253 nM; under setting [1], 417 nM; under setting [2], 238 nM.

Regarding “CCUAUCUCAUACGAUACCAGUCAAUUAAAACGAGUGAUGUUCGAAAAUUUGCCAUAUAAUGACCCUUGGCAGCGUAUGGGAUAGG [Ex Theophylline B K4 7]”, the “apparent KD of K4 kissing-loop reporter” value (input ligand: FMN 200 uM) came out at 187 nM; the “apparent KD of K4 kissing-loop reporter” value (input ligand: arginine 13.2 mM) was determined as 196 nM; the “apparent KD of K4 kissing-loop reporter” value (input ligand: none) was found to be 194 nM; the “apparent KD of K4 kissing-loop reporter” value under setting [1] was 197 nM; the “apparent KD of K4 kissing-loop reporter” value under setting [2] turned out to be 164 nM.

“CCUAUCUCAUACGAUACCAGUCUACGAUAUUUUAUCGUUGCCAUCACCGAGUGAUGUUCGGACCCUUGGCAGCGUAUGGGAUAGG [Ex Theophylline B K4 5]”: the “apparent KD of K4 kissing-loop reporter” value (input ligand: FMN 200 uM) stood at 340 nM; the “apparent KD of K4 kissing-loop reporter” value (input ligand: arginine 13.2 mM) is 277 nM; the “apparent KD of K4 kissing-loop reporter” value (input ligand: none) came out at 355 nM; the “apparent KD of K4 kissing-loop reporter” value under setting [1] is 544 nM; the “apparent KD of K4 kissing-loop reporter” value under setting [2] was found to be 346 nM.

Take “CCUAUCUCAUACGAUACCAGUGAAAUAAUAUUUAUAAGCAGUGAUGUUGCAUUCCAAGAACACCCUUGGCAGCGUAUGGGAUAGG [Ex Theophylline B K4 19]”: the “apparent KD of K4 kissing-loop reporter” value reads like this: (input ligand: FMN 200 uM) 168 nM; (input ligand: arginine 13.2 mM) 187 nM; (input ligand: none) 178 nM; under setting [1], 189 nM; under setting [2], 143 nM.

For “CCUGCGGCUUCCGGCGGGCCCGAUUUAUAAAAGGAUAUGUGCGUACACAGAAGGUUUAACGAGGGACCGAGAGUGAUGUUCUCCU [theeternabot_sameState_KL_FMN_A_33]”, the “apparent KD of K4 kissing-loop reporter” value (input ligand: FMN 200 uM) came out at 585 nM; the “apparent KD of K4 kissing-loop reporter” value (input ligand: arginine 13.2 mM) turned out to be 174 nM; the “apparent KD of K4 kissing-loop reporter” value (input ligand: none) was 316 nM; the “apparent KD of K4 kissing-loop reporter” value under setting [1] is 370 nM; the “apparent KD of K4 kissing-loop reporter” value under setting [2] was determined as 418 nM.

For the sequence “CGAAGAUUCCAUGAUACCAGCCUCGGCCCAUAGAGUGAUGUUCUAGUCGGGUCCGUUCGCGGCCCUUGGCAGCAUUUCACCACGA [theeternabot_sameState_KL_Theo_B_44]”, the “apparent KD of K4 kissing-loop reporter” value is 197 nM (input ligand: FMN 200 uM); 172 nM (input ligand: arginine 13.2 mM); 178 nM (input ligand: none); 216 nM under setting [1]; 159 nM under setting [2].

On to “CGAGUACAUUGCGAUACCAGCGAUAGCAGUUCAACGCGCAGUCCGUUUAGUGAUGUUAGACGCCCUUGGCAGCGCUUCCUGGCAA [theeternabot_exclusion_KL_Theo_B_44]”, for which the “apparent KD of K4 kissing-loop reporter” value by setting is: (input ligand: FMN 200 uM) 519 nM; (input ligand: arginine 13.2 mM) 324 nM; (input ligand: none) 460 nM; under setting [1], 520 nM; under setting [2], 393 nM.

Take “CGAGUGAUGUUCGUUCGUUUAUUUCGGUGACAGGAUAUGCGGAAACGCAGAAGGGUCACCUUUGAGUUACCGGAAUUAACGUUAU [Ex FMN A 29]”: the “apparent KD of K4 kissing-loop reporter” value (input ligand: FMN 200 uM) amounted to 564 nM; the “apparent KD of K4 kissing-loop reporter” value (input ligand: arginine 13.2 mM) worked out at 453 nM; the “apparent KD of K4 kissing-loop reporter” value (input ligand: none) amounted to 623 nM; the “apparent KD of K4 kissing-loop reporter” value under setting [1] is 558 nM; the “apparent KD of K4 kissing-loop reporter” value under setting [2] amounted to 455 nM.

“CGAGUGAUGUUCGUUUUUUAAUUUUUUUGACAGGAUAUGCGGAAACGCAGAAGGGUCACCUUUGAGUUAAAAGAAUUUAUUUUUU [Ex FMN A 17]”: the “apparent KD of K4 kissing-loop reporter” value by setting is: (input ligand: FMN 200 uM) 321 nM; (input ligand: arginine 13.2 mM) 236 nM; (input ligand: none) 295 nM; under setting [1], 298 nM; under setting [2], 199 nM.

Regarding “CGAUAUAAGAAUAUAUAUCUCUAUUCAGAAGGAGCGUGUUUGUACACAGGUAGGUCGCUGAAAUUUAAACUAGUGAUGUUAGACU [JR_SSArginiA_Sub002]”, the “apparent KD of K4 kissing-loop reporter” value by setting is: (input ligand: FMN 200 uM) 1170 nM; (input ligand: arginine 13.2 mM) 878 nM; (input ligand: none) 1210 nM; under setting [1], 1000 nM; under setting [2], 890 nM.

As to “CGCAGUGAUGUUGCGAGUAACUACAGGGAAGGAGCGCGGUAGUCCGCAGGUAGGUCGCCCACGCAGUGAUGUUGCGUCAUAGGGU [Exclusion Arg A GF7]”, the “apparent KD of K4 kissing-loop reporter” value amounted to 110 nM (input ligand: FMN 200 uM); 109 nM (input ligand: arginine 13.2 mM); 104 nM (input ligand: none); 118 nM under setting [1]; 97.3 nM under setting [2].

For the sequence “CGCAGUGAUGUUGCGAGUUCAUUCAGGGAAGGAGCGCCACAGAUGGCAGGUAGGUCGCCCACGCAGUGAUGUUGUGUAUUCGGGU [Exclusion Arginine A GF 2]”, the “apparent KD of K4 kissing-loop reporter” value is, setting by setting: (input ligand: FMN 200 uM) 202 nM; (input ligand: arginine 13.2 mM) 153 nM; (input ligand: none) 165 nM; under setting [1], 170 nM; under setting [2], 137 nM.

“CGCAGUGAUGUUGCUUAUAUUCUUGGUUAACGAGGACCGGUACGGCCGCCACUCGAUUUCUAUCUAUUCCAGUGUUAAUUUGAGU [JR_ExcTryptoA_Sub005]”: the “apparent KD of K4 kissing-loop reporter” value runs as follows: (input ligand: FMN 200 uM) 364 nM; (input ligand: arginine 13.2 mM) 429 nM; (input ligand: none) 419 nM; under setting [1], 568 nM; under setting [2], 271 nM.

As to “CGCAGUGAUGUUGCUUUUAUUCUUGGUUAACGAGGACCGGUACGGCCGCCACUCGAUUUCUAUCUAUUCCAGUGUUUUUUUGAGU [JR_ExcTryptoA_Sub004]”, the “apparent KD of K4 kissing-loop reporter” value was 261 nM (input ligand: FMN 200 uM); 374 nM (input ligand: arginine 13.2 mM); 304 nM (input ligand: none); 464 nM under setting [1]; 195 nM under setting [2].
